Measurements: US20240150449A1

Legend:
[1] = biological target: recombinant in vitro phosphorylated full-length TDP-43 (TDP-43-MBP phosphorylated with casein kinase 1 delta) (human) (UniProt Q13148); assay: SPR Biacore 8K, 25 C, in vitro phosphorylated TDP-43 amine-coupled on CM5, IgG as analyte (avidity)
[2] = biological target: recombinant in vitro phosphorylated full-length TDP-43 (TDP-43-MBP phosphorylated with casein kinase 1 delta) (human) (UniProt Q13148); assay: SPR Biacore 8K, 25 C, in vitro phosphorylated TDP-43 amine-coupled on CM5, Fab as analyte

Kd [1] | koff [1] | kon [1] | Kd [2] | koff [2] | kon [2] | Binder
0.01 nM | 0.0003 s⁻¹ | 2.5e+07 M⁻¹ s⁻¹ | – | – | – | antibody 31F3 (human IgG) (antibody, V domains shown) VH: QVQLEQSGAEVKRPGASVKVSCKASGYTFTGYYLHWVRQAPGQGLEWMGRINPGSGGTKYAQKFQGRVSMTRDTSISTAYMEVNRLRPDDTAVYYCARYQVYGERGRYMDVWGKGTTVTVSS VL: QSALTQPASVSGSPGQSITISCTGTSSDVGTYDLVSWYQQHPGKAPKLIIYEDNKRPSGLSNRFSGSKSGNTASLTISGLQADDEADYYCCSYAAISTLIFGGGTKVTVL
– | – | – | 34 nM | 0.11 s⁻¹ | 3.1e+06 M⁻¹ s⁻¹ | 30E1 Fab (Fab, V domains shown) VH: QVQLVQSGAEVKKPGASVKVSCKTSGYTFTDYYLHWVRQAPGQGLEWMGRINPNSGNTNYAQKFQGRVSVTRDTSISTAYMELSRLSSDDTAVYFCARVKIVVLRSTPTLYYFDYWGQGTLVTVSS VL: QSALTQPASVSGSPGQSITISCTGTSSDVGTYDLVSWYQQHPGKAPKVMIYEGSKRPSGVSNRFSGSKSGNTASLTISGLQAEDEADYYCCSYAGTSTLVFGGGTKVTVL
0.02 nM | 0.00061 s⁻¹ | 3e+07 M⁻¹ s⁻¹ | – | – | – | antibody 30E1 (human IgG) (antibody, V domains shown) VH: QVQLVQSGAEVKKPGASVKVSCKTSGYTFTDYYLHWVRQAPGQGLEWMGRINPNSGNTNYAQKFQGRVSVTRDTSISTAYMELSRLSSDDTAVYFCARVKIVVLRSTPTLYYFDYWGQGTLVTVSS VL: QSALTQPASVSGSPGQSITISCTGTSSDVGTYDLVSWYQQHPGKAPKVMIYEGSKRPSGVSNRFSGSKSGNTASLTISGLQAEDEADYYCCSYAGTSTLVFGGGTKVTVL
– | – | – | 2.5 nM | 0.017 s⁻¹ | 6.8e+06 M⁻¹ s⁻¹ | 31F3 Fab (Fab, V domains shown) VH: QVQLEQSGAEVKRPGASVKVSCKASGYTFTGYYLHWVRQAPGQGLEWMGRINPGSGGTKYAQKFQGRVSMTRDTSISTAYMEVNRLRPDDTAVYYCARYQVYGERGRYMDVWGKGTTVTVSS VL: QSALTQPASVSGSPGQSITISCTGTSSDVGTYDLVSWYQQHPGKAPKLIIYEDNKRPSGLSNRFSGSKSGNTASLTISGLQADDEADYYCCSYAAISTLIFGGGTKVTVL
